The supplement of paper PMC9732359
± gives the uncertainty stated by the source.

Assay: protein stability index of a GFP-peptide fusion (yeast GPS) (PSI 1-4); higher = more stable; sorted into four equal gates, so the index is relative within each strain
Procedure, shortened: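 Tiled yeast protein peptides of 17 residues were each joined downstream of GFP, on plasmids that also express Cherry. The pooled library was maintained in yeast, and mid-log cultures in leucine-free medium were sorted into four equal gates on the GFP/Cherry ratio. Plasmids from every gate were amplified by PCR and sequenced on Illumina, with barcodes linking reads to strains. The protein stability index of a peptide is its gate-number-weighted read frequency summed over the gates.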

Sequence | protein stability index (san1∆) | protein stability index (doa10∆) | protein stability index (pdr5∆) | protein stability index (ubr1∆)
GMVSHKTARGKAALERL [RPL16A] | 3.17 ± 0.13 | – | – | –
NTLIPESSLTISLYFND [ECM29] | 1.99 ± 0.061 | 1.92 ± 0.046 | 2.19 ± 0.052 | 2.42 ± 0.043
GEANKHHWEDLQKRVIE [RPN5] | 2.93 ± 0.18 | 2.98 ± 0.26 | 3.4 ± 0.26 | 3.81 ± 0.27
ENFSNGISLVMEIVANA [MED1] | 2.5 ± 0.057 | 2.12 ± 0.067 | 2.53 ± 0.054 | 2.51 ± 0.034
SVLYQLSTSAFMEIVLE [YML031W/NDC1] | 2.07 ± 0.068 | 2.17 ± 0.047 | 2.07 ± 0.055 | 2.67 ± 0.058
SQIIARNEEILRDIGEC [SMC2] | 2.85 ± 0.062 | 2.79 ± 0.077 | 2.46 ± 0.091 | 3.07 ± 0.084
RGTLTKNLKHIDVTFTK [RPL9A] | 3 ± 0.077 | 3.32 ± 0.06 | 3.25 ± 0.067 | 2.72 ± 0.065
YGAYNTQIANAGASPMV [PRE4] | 1.92 ± 0.097 | 2.16 ± 0.1 | 2.3 ± 0.096 | 1.61 ± 0.063
FVDDTNVYRVTVHKTFE [PRP8] | 2.21 ± 0.096 | 2.68 ± 0.087 | 2.74 ± 0.11 | 2.52 ± 0.068
LRIELQSVYNDEKLKTE [SRB8] | 3.26 ± 0.12 | 3.17 ± 0.22 | 3.23 ± 0.24 | –
MASTAVMMDVDSSGVND [RPN3] | – | 3.17 ± 0.19 | 3.51 ± 0.2 | 3.26 ± 0.091
FIRLPHWPLNWYLILSI [RGR1] | 1.33 ± 0.23 | 1.46 ± 0.077 | 1.4 ± 0.064 | 1.37 ± 0.062
YDTQLKVSPEELPLVIT [ARP7] | 2.59 ± 0.041 | 2.6 ± 0.047 | 2.77 ± 0.062 | 2.62 ± 0.042
WNLEKWREIIEKVRDYE [IRR1] | 3.3 ± 0.054 | 3.06 ± 0.12 | 3.41 ± 0.15 | 3.19 ± 0.066
LIPASDLSWSKQTDTGI [PRP8] | 2.79 ± 0.065 | 2.32 ± 0.089 | 2.68 ± 0.063 | 2.38 ± 0.044
KIMVAEWYLSHLCSGIL [SRB8] | 1.24 ± 0.077 | 1.35 ± 0.056 | 1.39 ± 0.057 | 1.47 ± 0.049
RNFKKANLVNKESDLLE [BRN1] | 1.64 ± 0.11 | 1.7 ± 0.099 | 1.58 ± 0.051 | 1.43 ± 0.053
HKDIPEEDFYTVVGNAS [DSN1] | 2.73 ± 0.1 | 2.94 ± 0.091 | 2.91 ± 0.18 | 3.19 ± 0.062
VKDWLYDSRPLEEDSKK [PRP8] | 2.8 ± 0.12 | 2.95 ± 0.19 | 2.91 ± 0.24 | –
SGKRKPTKAAQRARDQD [GAL11] | 3.25 ± 0.28 | – | 3.65 ± 0.16 | 3.58 ± 0.15
HVLYKESKGNAFKHKRA [RPL19A] | 2.59 ± 0.08 | 2.97 ± 0.079 | 2.49 ± 0.12 | 2.46 ± 0.044
VPPILIILPLDNATLTE [SSN2] | 2.58 ± 0.16 | 2.97 ± 0.1 | 2.71 ± 0.11 | 2.51 ± 0.087
VEESSEKKQKTESQDVE [DPB4] | 3.23 ± 0.13 | 2.8 ± 0.13 | 3.33 ± 0.12 | 3.03 ± 0.07
LVQLPKSAMDTFKSVSK [POP3] | 2.75 ± 0.047 | 2.65 ± 0.052 | 2.85 ± 0.044 | 2.54 ± 0.036
ELSDSDRQIINEKMQLL [SIR4] | 2.56 ± 0.06 | 2.76 ± 0.049 | 2.8 ± 0.055 | 2.32 ± 0.047
GSLWVEFCDEPSVGVKT [RPB5] | 3 ± 0.093 | 2.84 ± 0.054 | 2.86 ± 0.076 | 2.92 ± 0.053
ILAAAHRDAYSGGSVNL [PRE2] | 2.79 ± 0.062 | 2.86 ± 0.078 | 3.2 ± 0.092 | 2.89 ± 0.045

Sequence | protein stability index (san1∆) | protein stability index (doa10∆) | protein stability index (pdr5∆) | protein stability index (ubr1∆)
NKAQAKMDKRAKTSDSA [RPL8B] | 3.27 ± 0.066 | 3.34 ± 0.23 | 3.02 ± 0.12 | 3.31 ± 0.071
KQIVHDSGRGAPLAKVV [RPL2A] | – | 2.16 ± 0.22 | 2.16 ± 0.18 | 2.41 ± 0.17
CFMHLLVQLFLWDSKEL [RPN3] | 1.61 ± 0.15 | 1.23 ± 0.078 | 1.6 ± 0.064 | 1.54 ± 0.15
PKFAIQDNHHITKVTEN [YMR129W/POM152] | 2.75 ± 0.04 | 2.83 ± 0.052 | 2.88 ± 0.058 | 3.09 ± 0.041
CMEVASAFMKFSKAIEW [BRR2] | 2.42 ± 0.068 | 2.12 ± 0.064 | 2.21 ± 0.047 | 1.98 ± 0.043
TKLIQYEHNGRTLEAIT [CSL4] | 2.38 ± 0.055 | 2.22 ± 0.049 | 2.48 ± 0.044 | 2.29 ± 0.034
TFEIPQAHEIVIPSYSK [SWI3] | 2.39 ± 0.065 | 2.43 ± 0.095 | 2.37 ± 0.07 | 2.36 ± 0.064
SSDALSKEKANFLETIA [SIR4] | 1.38 ± 0.091 | 1.49 ± 0.057 | 1.68 ± 0.046 | 1.52 ± 0.048
KTFSRLDALTRHIKSKH [RPN4] | 1.06 ± 0.12 | 1.11 ± 0.12 | 1.25 ± 0.087 | 1.5 ± 0.1
NDSNPSFSFSIPSKNTP [YLR335W/NUP2] | 2.58 ± 0.046 | 2.42 ± 0.048 | 2.13 ± 0.04 | 2.64 ± 0.047
CRQEFLERVKANAAKRA [RPL21A] | – | – | 1.33 ± 0.23 | –
EIFQLFTNPSVDIQIIN [SWI1] | 2.55 ± 0.078 | 2.69 ± 0.081 | 2.88 ± 0.09 | 2.54 ± 0.064
EVAIRDVNLDVRIHSIQ [IRR1] | 2.49 ± 0.059 | 2.4 ± 0.06 | 2.1 ± 0.061 | 1.68 ± 0.052
ENSIGYNNRKCWPKDSR [PRP8] | – | 3.08 ± 0.16 | 2.95 ± 0.18 | 2.87 ± 0.29
KELELERKEREDFQKRQ [SWI1] | 3.32 ± 0.068 | 3.25 ± 0.076 | 3.22 ± 0.078 | 3.31 ± 0.045
GINSPLSSVALRSDFYI [YJL039C/NUP192] | 2.96 ± 0.14 | 2.45 ± 0.15 | 2.78 ± 0.12 | 3.07 ± 0.15
TNNKKLLEKANNQQRLL [SMC3] | 2.58 ± 0.18 | 2.01 ± 0.11 | 1.94 ± 0.091 | 1.49 ± 0.063
LKLPADATTWRYSMSEQ [IRR1] | 2.69 ± 0.065 | 2.68 ± 0.071 | 2.65 ± 0.058 | 2.5 ± 0.059
RATTYEKLTMVFQDNVY [SIN4] | 2.21 ± 0.11 | 2.2 ± 0.065 | 2.48 ± 0.051 | 2.53 ± 0.057
ETISNVAKTAPNSNKTH [SNF2] | 2.96 ± 0.035 | 2.96 ± 0.055 | 3 ± 0.061 | 3.07 ± 0.045
DLSYNFNVHEVPRAALE [YMR129W/POM152] | 2.85 ± 0.054 | 2.91 ± 0.057 | 3.04 ± 0.069 | 2.92 ± 0.049
GEKIDSNKPIFLFAPEL [SWI1] | 2.59 ± 0.21 | 2.62 ± 0.1 | 2.54 ± 0.21 | 2.91 ± 0.23
TFAVILFLIIQCYKIYD [YMR129W/POM152] | 1.19 ± 0.094 | 1.35 ± 0.057 | 1.22 ± 0.046 | 1.31 ± 0.053
QRETSGMIVISMENYHL [SRB8] | 2.09 ± 0.042 | 2.16 ± 0.04 | 1.99 ± 0.04 | 2.35 ± 0.033
NIKPVEQHHINNLKNSG [GAL11] | 2.36 ± 0.069 | 2.69 ± 0.062 | 2.59 ± 0.049 | 2.47 ± 0.041
MARYGATSTNPAKSASA [RPL17A] | 2.31 ± 0.09 | 2.59 ± 0.056 | 2.91 ± 0.064 | 2.9 ± 0.048
QVPDSLDDQIFVCEKSI [RPN6] | 2.95 ± 0.084 | 3.01 ± 0.2 | 3.19 ± 0.1 | 2.92 ± 0.13
